Laboratory results reported in article PMC11906780 (Scientific Reports, 2025).

Legend:
[1] = target: RSV G^ecto with GalNAc-restricted O-glycosylation (Human respiratory syncytial virus A, …, UniProt P03423); assay: cryo-EM structure; settings: both partners purified
[2] = target: T1, RSV strain A2 (RSV/A2) G glycoprotein ectodomain (RSV G^ecto) (Human respiratory syncytial virus A, …, UniProt P03423); assay: BLI; settings: both partners purified
T1 construct: not shown: 6xHistidine-Tag, C-terminal, kept
T1 sequence (P03423 whole entry, looked up, the tested form may be a part): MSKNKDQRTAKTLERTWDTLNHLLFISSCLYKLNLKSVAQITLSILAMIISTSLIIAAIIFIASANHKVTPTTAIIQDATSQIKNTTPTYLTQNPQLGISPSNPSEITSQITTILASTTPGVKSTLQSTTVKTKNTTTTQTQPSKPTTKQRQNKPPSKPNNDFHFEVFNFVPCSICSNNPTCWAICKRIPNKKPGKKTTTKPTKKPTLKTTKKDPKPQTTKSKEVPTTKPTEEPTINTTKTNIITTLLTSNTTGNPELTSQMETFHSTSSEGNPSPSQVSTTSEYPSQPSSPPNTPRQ

Sequence of RSV G^ecto with GalNAc-restricted O-glycosylation (P03423 whole entry, looked up, the tested form may be a part): as above

B1: Fab 3D3 (papain fragment of mAb 3D3) (Fab, V domains shown)
VH: EEQLVESGGGLVQPGRSLRLSCVGSGLRFEEHAMHWVRQAPGRGLEWVSGISWNSGSVGYADSVKGRFTTSRDNAKDILFLEMNTLRSEDTALYFCAIMVATTKNDFHYYKDVWGKGTTVTVSS
VL: QIVLTQSPATLSLSPGERATLSCRASQSVSNHLAWYQQKPGQAPRLLIYETSNRATGIPPRFSGSGSGTDFTLTISSLEPEDFAVYYCQQRNNWYTFGQGTKLEIK
notes: source: papain digestion of the full length mAb from CHO-S, Fc removed with protein A, purified (Superdex 200 SEC)
- binding result [1]: binds

B2: human monoclonal antibody 3D3 (recombinant human IgG1) (antibody, V domains shown)
VH: B1 VH
VL: B1 VL
notes: also called mAb 3D3; TRL3D3; source: CHO-S, electroporated, purified (HiTrap Protein G)
- binding result [2]: binds

B3: human monoclonal antibody 2D10 (recombinant human IgG1) (antibody, V domains shown)
VH: QVQLVQSGPEVKKPGASVRLSCKASGYVFTNYGVSWVRQAPGQGLEWMGWSSPYNGNTYYAQKLKARVTMTTDTSTNTAYMELRSLRSDDTAVYYCGRDMLGVVQAVAGPFDSWGQGTLVTVSS
VL: DTPMTQSPSSVSASVGDRVTISCRASQGISNSLAWYQQKLGKAPQLLIYAASSLQSGVPSRFSGSGSGTDFTLTISSLQPEDFATYYCQQTNTFPFTFGPGTKVEVR
notes: also called mAb 2D10; source: CHO-S, electroporated, purified (HiTrap Protein G)
- binding result [2]: binds

B4: Fab 2D10 (papain fragment of mAb 2D10) (Fab, V domains shown)
VH: B3 VH
VL: B3 VL
notes: as for B1
- binding result [1]: binds

B5: human monoclonal antibody 3G12 (recombinant human IgG1) (antibody, V domains shown)
VH: QLQLQESGPGLVKPSETLSLTCTVSGGSISSSNYYWGWIRQPPGKGLEWIASIHDSGSIYYNPSLRSRVTISVDTSKNQFSLKLSSVTAADTAVYYCARHLVWFGELRNNWFDPWGQGTLVTVAS
VL: EIVMTQSPATLSVSPGERATLSCRASQSVNSNLAWYQHKPGQAPRLLIYGASTRATGIPARFSGSGSGTDFTLTISSLQSEDFAVYYCQQYNNWPLFGPGTKVDLK
notes: also called mAb 3G12; source: CHO-S, electroporated, purified (HiTrap Protein G)
- binding result [2]: binds
